These results are taken from paper PMC3858555.

For this experiment, the target named is CIN85 of MDCK cells (dog (endogenous in MDCK)). The experiment in a line: co-IP; whole cell lysates (RIPA), 500 μg; precipitated with anti-CIN85 antibody, blotted with anti-MUC1 (3C6, Ab5) or anti-Tac; washed with RIPA containing 0.5 M NaCl, 2% SDS; control unrelated IgG; intensity by Image J.

For the substance “full-length MUC1 containing 22 tandem repeats in the VNTR domain (natural protein)”, the fold co-precipitation against the construct lacking the cytoplasmic tail (22TR-Tac) turned out to be 1.9 fold and the fold co-precipitation against the construct lacking the extracellular domain (Tac-CT) is 2.4 fold.
